The text below walks through data of US7812117B2, “Vasostatin as marrow protectant” (The United States of America as represented by the …, priority 1998, dated 2010).

Experiment [1] concerns murine bone marrow cells. The experiment in a line: Murine bone marrow cell number in culture (Owen's reagent formazan absorbance at 490 nm). Format: cell-based, mouse. On the procedure:
FIG. 7 is a series of bar graphs showing the effects of vaso on growth-factor induced proliferation of bone marrow cells with or without methotrexate. Bone marrow cells populations, obtained from the femural cavities of C57BL/6NCR mice (3.5 months of age), were cultured in 24 well tissue culture plates in culture medium alone or medium containing a mixture of the growth factors (GF) IL-3 (20 ng/ml), IL-6 (100 ng/ml) and Stem Cell Factor (100 ng/ml). Vaso was added to the cultures at concentrations ranging between 1.25 and 10 μg/ml. Methotrexate was added to the cultures at the concentration of 100 nM. FIG. 7A is a bar graph of cell proliferation as measured by ^3H thymidine incorporation during the final 22 hr of a 7-day culture. The results reflect the mean cpm of triplicate cultures. FIG. 7B is a bar graph of cell numbers measured as mean absorbance (490 nM) after conversion of Owen's reagent into colored formazan product (One Solution Reagent, Promega).
FIG. 9 is a series of bar graphs showing that vaso increases bone marrow cell proliferation in vitro. Bone marrow cells populations, obtained from the femural cavities of C57BL/6NCR mice (8 weeks of age), were cultured in culture medium alone or in medium supplemented with a mixture of IL-3 (20 ng/ml), IL-6 (100 ng/ml) and Stem Cell Factor (SF, 100 ng/ml). […] FIG. 9A is a bar graph of cell proliferation as measured by ^3H thymidine incorporation during the final 20-23 hr of a 4, 5 or 6-day culture. FIG. 9B is a bar graph of cell number measured as absorbance (490 nM) after conversion of Owen's reagent into colored formazan product (One Solution Reagent, Promega).
In the absence of exogenously added growth factors, vaso at the highest concentration used (10 μg/ml) had low level stimulatory effect (approximately 2-fold stimulation of background cpm).
Stimulation of bone marrow cell proliferation by vaso was associated with an increased number of bone marrow cells, measured as absorbance from the conversion of Owen's reagent into a colored formazan product (One Solution Reagent, Promega, Madison. Wis.). […]

For experiment [2], the system named is murine bone marrow cells. The experiment in a line: Murine bone marrow cell proliferation in vitro ([3H] thymidine incorporation).
The mark [3] stands for this setting: vaso 10 μg/ml in the presence of growth factors.

B1: vaso: N-terminal domain of calreticulin (amino acids 1-180, SEQ ID NO:3); given as fusion protein with maltose binding protein, MBP-vaso (protein)
chain: EPAVYFKEQFLDGDGWTSRWIESKHKSDFGKFVLSSGKFYGDEEKDKGLQTSQDARFYALSASFEPFSNKGQTLVVQFTVKHEQNIDCGGGYVKLFPNSLDQTDMHGDSEYNIMFGPDICGPGTKKVHVIFNYKGKNVLINKDIRCKDDEFTHLYTLIVRPDNTYEVKIDNSQVESGSLE
modifications: Vasostatin
As to B1, the “number of cells in culture” value in the experiment on murine bone marrow cells [1] (vaso 10 μg/ml added to medium alone) is recorded as “increased only minimally”. The “number of cells counted after 5 days of culture” value in the experiment with murine bone marrow cells [1] (vaso 10 μg/ml, growth factors (IL-3, IL-6 and Stem Cell Factor) either alone or with etoposide 77 nM) is on record as “increased significantly”. For the same molecule, the “number of living bone marrow cells in culture” value in the experiment with murine bone marrow cells [1] (vaso with methotrexate 100 nM and growth factors) was “increase in the number of living bone marrow cells”. The “murine bone marrow cell proliferation with or without cisplatinum” value in the experiment on murine bone marrow cells [2] (Vaso 10 μg/ml, IL-3 (30 μg/ml), cisplatinum between 5 and 0.02 nM) is recorded as “enhanced murine bone marrow cell proliferation”. Further, the “growth of murine hematopoietic cells after 5 or 6 days of culture” value in the experiment on murine bone marrow cells [2] (all used at 10 μg/ml, IL-3 20 ng/ml) is on record as “stimulated the growth”. The “bone marrow cell proliferation vs growth factors alone” value with murine bone marrow cells [2] (day 5, vaso 12.5-50 μg/ml added to IL-3 plus IL-6 plus Stem Cell Factor) is reported as 21-54 fold. For the same molecule, in the experiment on murine bone marrow cells [2] (mafosfamide added after 3 days of culture), the “mafosfamide concentrations at which growth stimulatory effect of vaso was appreciable” value is ≤ 8 µg/mL. The “increase in cell proliferation on day 5” value with murine bone marrow cells [2] (unseparated marrow, vaso 10 μg/ml, IL-3 20 ng/ml) amounted to 3.4 fold. Besides, the “direct stimulation of bone marrow cell proliferation” value in the experiment on murine bone marrow cells [2] (vaso 10 μg/ml in medium alone, no growth factors) is “failed to directly stimulate”. In the experiment with murine bone marrow cells [2] (setting [3]), the “promotion of bone marrow cell proliferation on day 5” value was determined as 39 fold and the “promotion of bone marrow cell proliferation on day 6” value came to 17 fold. The “promotion of bone marrow cell proliferation on day 4” value with murine bone marrow cells [2] (vaso 10 μg/ml in the presence of growth factors (IL-3, IL-6, stem cell factor)) is given as 6.5 fold. The “stimulation of background cpm” value in the experiment with murine bone marrow cells [2] (vaso 10 μg/ml, absence of exogenously added growth factors, 7 day culture) was “approximately 2 fold”. In addition, in the experiment on murine bone marrow cells [2] (vaso 10 μg/ml, Etoposide 77 nM, growth factors), the “promotion of bone marrow cell proliferation in the presence of Etoposide” value is listed as “to the same or greater degree than in the absence of Etoposide”. In addition, the “increase of IL-3-induced bone marrow proliferation in the presence of Etoposide” value in the experiment on murine bone marrow cells [2] (vaso 10 μg/ml, Etoposide 385-15.4 nM, day 5) is reported as “evident even in the presence of Etoposide”. Moreover, in the experiment on murine bone marrow cells [2] (vaso 10 μg/ml, IL-3 20 ng/ml), the “bone marrow cell proliferation induced by IL-3, day 5” value is listed as “enhanced bone marrow cell proliferation” and the “enhancement of IL-3 induced response on day 4” value was “approximately 3 fold”. In addition, the “enhancement of proliferative response on day 5 or 6” value in the experiment on murine bone marrow cells [2] (vaso 10 μg/ml, IL-3 or combination of IL-3, IL-6 and Stem Cell Factor) was 7-16 fold. In the experiment on murine bone marrow cells [2] (vaso 10 μg/ml, combination of IL-3, IL-6 and Stem Cell Factor), the “proliferative response on day 3” value is “enhanced the response induced by the combination of IL-3, IL-6 and Stem Cell Factor slightly”. For the same molecule, in the experiment with murine bone marrow cells [2] (vaso 12.5 μg/ml, growth factors, 6 days culture), the “proliferation of bone marrow cells exposed to mafosfamide” value was “markedly enhanced”. The “bone marrow cell proliferation in the presence of methotrexate” value in the experiment with murine bone marrow cells [2] (vaso 0.25-10 μg/ml, methotrexate 100 nM and growth factors, 7 day culture) is “dose-dependently stimulated”.
